Data as given in the MegaScale stability set (Tsuboyama et al. 2023).

B1: 6YSE (parent)
chain: HERALMVNRLQKLTRMLRVHPDPKWKQEQQELIKRLK
B2: 2K2A (parent)
chain: ELREAFRLYDKEGNGYISTDVMREILAELDETLSSEDLDAMIDEIDADGSGTVDFEEFMGVMT

Variants of: B1
Assay: folding stability dG (cDNA display proteolysis); higher = more stable
Conditions: PBS, room temperature

Folding stability dG [kcal/mol], by site and new letter:
M6: V 0.718 | Q 0.35 | I 1.8 | A 0.574 | G -0.19 | K -0.045 | Y -0.185 | L 1.46
L5: M 1.83 | P -0.071 | I 1.41 | H 1.61 | K 1.6 | V 1.29 | S 1.48 | G 1.16 | R 1.79
P21: T 0.908 | A 1.18 | Q 1.36 | L 0.688 | V 0.805 | W 2.02 | F 2.15 | K 1.04 | H 1.57 | G 0.843
P23: H 0.269 | I 0.608 | S 0.806 | G 0.641 | N 0.238 | L 0.804 | R 0.598 | E 0.721 | M 0.09 | T 0.669
L36: F 0.524 | Y -0.212 | W -0.411 | M 0.478
T14: M 1.21 | D 0.505 | I 1.35 | W 0.988 | N 1.39 | E 1.19 | V 0.832 | G 0.779 | A 1.32 | Q 0.979 | K 1.34 | S 1.03 | L 1.13 | Y 1.15
W25: A 0.973 | H 0.686 | D 0.337 | S 0.206 | G 0.387 | I 1.62 | Y 1.32 | Q 0.755 | V 1.22 | T 0.731 | N 0.386 | R 0.719
Q27: H 1.21 | S 1.04 | M 1.38 | F 1.14 | L 1.62 | I 1.22 | W 0.767 | E 1.42 | A 1.6 | D 0.957 | R 1.23 | G 0.59
E2: Q 1.25 | M 1.46 | V 1.23 | Y 1.32 | F 1.27 | L 1.59 | P 0.758 | W 1.65 | R 0.9 | I 1.4 | H 1.05
H20: Y 1.47 | G -0.186 | N 1.26 | R 1.19 | L 0.97 | I 1.06 | D 1.3 | F 1.39 | W 1.39 | T 1.13 | V 0.774 | S 1.26
R35: F 1.18 | E 0.729 | M 0.84 | I 1.58 | N 0.739 | V 1.14
Q11: M 1.73 | C 2.24 | Y 1.41 | V 1.48 | E 1.08 | R 2.14 | A 1.54
N8: G 1.23 | Q 2.12 | Y 1.38 | T 1.92 | R 2.01 | F 1.21 | K 2.4 | W 1.34 | I 1.84 | L 1.75 | M 1.67 | V 1.77
L13: C -0.58 | V 0.655
K34: I 1.31 | E 1.14 | L 1.15 | A 1.37 | D 0.366 | R 1.51 | V 1.03 | N 1 | C 1.59
Q29: Y 1.7 | M 1.72 | L 1.85 | T 0.863 | S 0.65 | H 0.663 | C 1.52 | V 1.68 | E 0.805 | D -0.859
R18: K 1.36 | M 1.29 | W 0.417 | Y 0.492 | G 0.577 | L 1.2 | H 0.59 | E 0.715 | S 0.989 | D 0.512 | A 1.45
V19: R 1.55 | E 1.19 | M 1.37 | K 1.55 | G 1.34
R3: L 1.61 | Y 1.69 | G 0.193 | A 0.434 | I 1.63 | F 1.66 | N 0.899 | E 0.651 | D 0.418 | M 0.994 | W 1.59 | S 0.487
D22: T 1.13 | V 0.67 | W 0.947 | A 0.299 | R 1.06 | N 1.67 | E 0.749
R15: W 0.914 | I 1.14 | F 0.829 | M 1.33 | Q 1.48 | G 0.365 | D 1.01 | A 1.32 | H 1.12 | L 1.31
K37: M 1.7 | G 1.27 | E 1.05 | S 1.19 | W 1.43 | Y 1.74 | D 0.831 | L 1.42 | H 1.19
K12: M 1.49 | F 2.26 | S 0.811 | L 1.53 | D 1 | T 1.3 | I 1.43 | N 1.01 | R 1.3 | H 1.37
K24: R 1.34 | V 1.31 | F 0.828 | I 1.32 | S 0.97
R9: T -0.04 | E 0.136 | Q 0.621 | K 0.551 | I 0.734 | F 0.77 | W 0.91
A4: V 1.23 | G 0.783 | Q 1.63 | P 0.222 | D 1.35 | N 1.31 | F 1.12 | I 1.53 | E 1.35 | Y 1.4
Q30: W 1.39 | A 1.07 | Y 1.04 | S 1.11 | E 1.38 | L 1.52 | G 0.68 | H 0.978
L32: M -0.196 | Y -0.525 | I 0.927 | W -0.364
M16: R 0.261 | Y 0.489 | H -0.229 | S -0.421 | F 0.018 | W 1.26 | L 1.35 | Q -0.015 | K 0.733 | I 0.699
V7: P -0.01 | S 0.086 | I 1.78 | W 1.96 | Q 1.03 | Y 1.67 | T 0.591 | A 0.946 | L 2.05 | M 1.59 | R 1.55 | K 1.05 | N 0.506 | F 1.42
H1: P 1.31 | E 1.26 | Y 1.59 | D 1.53 | W 1.75 | R 1.63 | A 1.55
K26: H 1.01 | D -0.129 | V 1.16 | E 1.14 | R 1.32 | C 0.732 | Q 1.03 | F 1.53 | Y 1.17 | M 1.29 | I 1.4
E28: Y 0.612 | I 1.05 | D -0.285 | Q 0.317 | W 0.824 | N -0.895 | T -0.079 | L 0.849 | F 0.366 | M 0.854 | R -0.089
L10: M -0.327 | I 0.954
I33: G -0.702 | T 0.17 | A 0.217 | F 0.663 | Y 0.751 | N 0.375 | K 0.269 | V 0.738 | Q -0.155 | S -0.232
L17: M 0.852 | S -0.127 | Y 0.234 | V -0.191 | A -0.037 | C -0.743
E31: K 0.805 | W 1.4 | L 1.08 | D 1.38 | V 0.669 | T 0.995 | N 0.839

Variants of: B2
Assay: as above
Conditions: PBS, room temperature

Folding stability dG [kcal/mol]: each site, then its substitutions
T63: S 1.88 | R 1.94 | W 1.33 | L 2.25 | Q 1.83 | Y 1.58 | V 1.82 | P 1 | N 1.82 | M 2.17
